Earlier results as cited in PMC7876049.

Target: CYK4 (Homo sapiens) (UniProt Q9H0H5)
UniProt Q9H0H5, sequence (Q9H0H5 whole entry): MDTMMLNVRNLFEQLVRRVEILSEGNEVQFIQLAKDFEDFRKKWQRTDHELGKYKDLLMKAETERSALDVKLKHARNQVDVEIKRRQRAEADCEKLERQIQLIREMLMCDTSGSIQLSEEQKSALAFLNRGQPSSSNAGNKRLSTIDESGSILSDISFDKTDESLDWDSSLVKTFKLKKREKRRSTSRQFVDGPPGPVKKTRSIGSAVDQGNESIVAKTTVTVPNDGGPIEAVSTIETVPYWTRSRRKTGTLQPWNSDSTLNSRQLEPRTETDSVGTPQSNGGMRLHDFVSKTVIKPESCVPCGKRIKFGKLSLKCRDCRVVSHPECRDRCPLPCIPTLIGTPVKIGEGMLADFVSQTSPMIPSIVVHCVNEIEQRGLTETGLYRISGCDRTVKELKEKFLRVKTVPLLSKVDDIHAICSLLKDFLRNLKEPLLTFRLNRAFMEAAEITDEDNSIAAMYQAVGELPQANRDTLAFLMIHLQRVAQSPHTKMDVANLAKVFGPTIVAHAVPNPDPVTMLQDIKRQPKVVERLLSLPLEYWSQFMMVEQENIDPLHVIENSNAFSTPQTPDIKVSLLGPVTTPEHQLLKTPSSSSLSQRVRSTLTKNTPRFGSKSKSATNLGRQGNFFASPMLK

## MKLP1 (from UniProt Q02241)
  Kd: 7 nM
